This passage reports EC50 results from PMC12301738 (The Journal of Biological Chemistry, 2025).

For the experiment, the target named is T1, Escherichia coli RelE toxin, fluorescently labeled (RED-NHS) (Escherichia coli, UniProt P0C077).
T1 sequence: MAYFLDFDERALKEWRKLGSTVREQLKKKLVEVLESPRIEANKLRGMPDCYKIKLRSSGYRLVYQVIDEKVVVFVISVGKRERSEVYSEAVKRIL
Briefly: other fluorescence titration.

B1: Escherichia coli RelB antitoxin, wildtype (His6-RelB) (natural protein)
chain: MGSINLRIDDELKARSYAALEKMGVTPSEALRLMLEYIADNERLPFKQTLLSDEDAELVEIVKERLRNPKPVRVTLDEL
On to B1, for which the EC50 (as a rule, the concentration at which the effect is half-maximal) was found to be 0.0026 µM.

B2: Escherichia coli RelB antitoxin with a stop codon at Leu66 (His6-RelBΔ66–79) (domain or fragment)
chain: MGSINLRIDDELKARSYAALEKMGVTPSEALRLMLEYIADNERLPFKQTLLSDEDAELVEIVKER
Turning to B2, the response was half-maximal at 24 µM (EC50).

B3: Escherichia coli RelB antitoxin truncated at Lys70 (His6-RelBΔ70–79) (domain or fragment)
chain: MGSINLRIDDELKARSYAALEKMGVTPSEALRLMLEYIADNERLPFKQTLLSDEDAELVEIVKERLRNP
Turning to B3, the midpoint of the response, the EC50, lay at 0.88 µM.
